We go through five molecules from patent publication US20230192903A1 (published 2023).

In assay [1] the target is Human CLDN18.2 (human). The assay is described as follows: cell-based or functional assay.
The target in another assay is T1, Human CLDN18.1 (human, UniProt P56856 1-261).
T1 construct: also called hCLDN18.1
Nature of the assay: flow cytometry, 293T-hCLDN18.1 cells. On the technique in general: Flow cytometry measures light scatter and fluorescence of single cells or particles in a stream.

For assay [2], the target named is T2, Human CLDN18.2 (human).
T2 construct: the cell line is named under assay; also called hCLDN18.2; human CLDN18.2 antigen
Nature of the assay: flow cytometry, NUGC4-hCLDN18.2 cells.
Experimental: (§1) NUGC4 and NUGC4-hCLDN18.2 cells were cultured, digested with pancreatin and centrifuged to collect cells. The cells were collected and resuspended in buffer (PBS+1% FBS) at 1×10⁴ cells/well in a 96-well plate at 100 μL per well. Then the mixture was centrifuged at 350×g for 5 min, and the supernatant was removed.

Assay [3] concerns the target T2, Human CLDN18.2. The assay is described as follows: flow cytometry, NUGC4 cells (endogenous CLDN18.2).
Assay [4] has as its target T2, Human CLDN18.2. Nature of the assay: cell-based or functional assay. The source holds these as a separate data set.
Assay [5] addresses T2, Human CLDN18.2. Nature of the assay: cell-based or functional assay. This is another data set of the same source.
The target in assay [6] is T2, Human CLDN18.2. The assay is described as follows: flow cytometry, NUGC4-hCLDN18.2 cells. The source holds these as a separate data set.
Experimental: as §1
Assay [7] deals with T2, Human CLDN18.2. Nature of the assay: flow cytometry, NUGC4 cells (endogenous CLDN18.2). The source holds these as a separate data set.
Experimental: as §1
For the next assay, the target named is T3, human CD3 antigen (human, UniProt P07766 23-126).
T3 construct: also called Human CD3ϵ
Nature of the assay: SPR (Biacore T200), human CD3 antigen amine-coupled on CM5 chip, 1:1 fit. In general terms: In SPR one partner is held on a chip, and binding of the other changes the refractive index at the surface.

As usually defined, the EC50 is the concentration at which the effect is half-maximal. Lower therefore signals a more potent agent. In general, Kd refers to the concentration at which binding is half-saturated.

Experimental for human CD3 antigen: After the detection was completed, data fitting was carried out on the result pattern by adopting Biacore T200 Evaluation Software in a 1:1 binding fitting mode to obtain an equilibrium dissociation constant (KD).

B1: bispecific antibody CS11 (bispecific antibody, human IgG1, kappa)
light: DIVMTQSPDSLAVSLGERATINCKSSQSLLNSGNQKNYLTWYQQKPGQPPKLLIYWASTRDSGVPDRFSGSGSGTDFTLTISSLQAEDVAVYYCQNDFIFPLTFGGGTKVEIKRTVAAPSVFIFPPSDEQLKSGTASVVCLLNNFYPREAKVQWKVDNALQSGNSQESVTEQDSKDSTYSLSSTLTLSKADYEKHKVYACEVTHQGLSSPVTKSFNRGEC
heavy 1: QVQLQESGPGLVKPSETLSLTCTVSGFSLTRYGVSWIRQPPGKGLEWIGVIWGEGNTNYNPSLKSRVTISKDSSKSQVSLKLSSVTAADTAVYYCARVNFGNALDYWGQGTLVTVSSASTKGPSVFPLAPSSKSTSGGTAALGCLVKDYFPEPVTVSWNSGALTSGVHTFPAVLQSSGLYSLSSVVTVPSSSLGTQTYICNVNHKPSNTKVDKKVEPKSCDKTHTCPPCPAPPVAGPSVFLFPPKPKDTLMISRTPEVTCVVVDVSHEAPEVQFNWYVDGVEVHNAKTKPREEQFNSTFRVVSVLTVVHQDWLNGKEYKCKVSNKGLPAPIEKTISKTKGQPREPQVYTLPPCRDELTKNQVSLWCLVKGFYPSDIAVEWESNGQPENNYKTTPPVLDSDGSFFLYSKLTVDKSRWQQGNVFSCSVMHEALHNHYTQKSLSLSPGK
heavy 2: not shown
notes: CSBODY structure: two 2C6.9 Fab arms; second heavy chain (first heavy entry) and first heavy chain with anti-CD3 scFv (L2K) between CH1 and Fc2
Take B1: in the assay with Human CLDN18.2 [1], the “EC50 value for killing effect on NUGC4-hCLDN18.2 cells” value (shortened to “EC50 value … on NUGC4-hCLDN18.2 cells”) was < 0.01 nM and the “EC50 value for killing effect on NUGC4 cells” value (“EC50 value … on NUGC4 cells” for short) was < 0.01 nM. For the same molecule, in the assay with Human CLDN18.1, the binding result was “no binding”. Moreover, the EC50 with Human CLDN18.2 [2] is < 50 nM. For the same molecule, the EC50 with Human CLDN18.2 [3] was < 100 nM.

B2: bispecific antibody CS3 (bispecific antibody, human IgG1, kappa)
light: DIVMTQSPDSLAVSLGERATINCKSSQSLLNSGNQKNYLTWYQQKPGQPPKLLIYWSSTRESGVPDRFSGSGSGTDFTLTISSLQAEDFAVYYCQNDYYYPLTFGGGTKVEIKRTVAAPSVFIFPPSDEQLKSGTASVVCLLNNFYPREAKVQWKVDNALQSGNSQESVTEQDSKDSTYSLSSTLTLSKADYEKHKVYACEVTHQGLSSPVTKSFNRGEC
heavy 1: EVQLVESGGGLVKPGGSLRLSCAASGFSFSNSAMSWVRQAPGKGLEWVSTISSGDSYTYYADSVKGRFTISRDNAKNSLYLQMNSLRAEDTAVYYCARQGYGNALDYWGQGTLVTVSSASTKGPSVFPLAPSSKSTSGGTAALGCLVKDYFPEPVTVSWNSGALTSGVHTFPAVLQSSGLYSLSSVVTVPSSSLGTQTYICNVNHKPSNTKVDKKVEPKSCDKTHTCPPCPAPPVAGPSVFLFPPKPKDTLMISRTPEVTCVVVDVSHEAPEVQFNWYVDGVEVHNAKTKPREEQFNSTFRVVSVLTVVHQDWLNGKEYKCKVSNKGLPAPIEKTISKTKGQPREPQVYTLPPCRDELTKNQVSLWCLVKGFYPSDIAVEWESNGQPENNYKTTPPVLDSDGSFFLYSKLTVDKSRWQQGNVFSCSVMHEALHNHYTQKSLSLSPGK
heavy 2: EVQLVESGGGLVKPGGSLRLSCAASGFSFSNSAMSWVRQAPGKGLEWVSTISSGDSYTYYADSVKGRFTISRDNAKNSLYLQMNSLRAEDTAVYYCARQGYGNALDYWGQGTLVTVSSASTKGPSVFPLAPSSKSTSGGTAALGCLVKDYFPEPVTVSWNSGALTSGVHTFPAVLQSSGLYSLSSVVTVPSSSLGTQTYICNVNHKPSNTKVDKKVEPKSCDKTHTAPAPAPAPAPAPAPAPQVQLVESGGGVVQPGRSLRLSCAASGFTFSTYAMNWVRQAPGKGLEWVARIRSKYNNYATYYADSVKDRFTISRDDSKNTLYLQMNSLRAEDTAVYYCARHGNFGNSYVSWFAYWGQGTLVTVSSGGGGSGGGGSGGGGSQTVVTQEPSLTVSPGGTVTLTCRSSTGAVTTSNYANWVQQKPGQAPRGLIGGTNKRAPGVPARFSGSLLGGKAALTLSGVQPEDEAEYYCALWYSNLWVFGGGTKVEIKGGGGSDKTHTCPPCPAPPVAGPSVFLFPPKPKDTLMISRTPEVTCVVVDVSHEAPEVQFNWYVDGVEVHNAKTKPREEQFNSTFRVVSVLTVVHQDWLNGKEYKCKVSNKGLPAPIEKTISKTKGQPREPQVCTLPPSRDELTKNQVSLSCAVKGFYPSDIAVEWESNGQPENNYKTTPPVLDSDGSFFLVSKLTVDKSRWQQGNVFSCSVMHEALHNHYTQKSLSLSPGK
notes: CSBODY structure: two 1E9.2 Fab arms; second heavy chain (first heavy entry) and first heavy chain with anti-CD3 scFv (2a5) between CH1 and Fc2
Regarding B2, in the assay with Human CLDN18.2 [4], the “EC50 (pM), in vitro killing by hPBMC, NUGC4-hCLDN18.2 cells” value stood at 0.698 pM and the “EC50 (pM), in vitro killing by hPBMC, NUGC4 cells” value amounted to 0.333 pM. Besides, in the assay with Human CLDN18.2 [5], the “Induction of expression of CD25 EC50 (pM), NUGC4” value is 5.38 pM; the “Induction of expression of CD25 EC50 (pM), NUGC4-hCLDN18.2” value is 5.45 pM; the “Induction of expression of CD69 EC50 (pM), NUGC4” value is 0.461 pM; the “Induction of expression of CD69 EC50 (pM), NUGC4-hCLDN18.2” value worked out at 1.45 pM. In addition, in the assay with Human CLDN18.2 [6], it took 31.5 nM to reach a half-maximal effect (EC50). Besides, it took 64 nM to reach a half-maximal effect in the assay with Human CLDN18.2 [7] (EC50). The Kd in the assay with human CD3 antigen is 10 nM.

B3: bispecific antibody Y4 (bispecific antibody, human IgG1, kappa)
light: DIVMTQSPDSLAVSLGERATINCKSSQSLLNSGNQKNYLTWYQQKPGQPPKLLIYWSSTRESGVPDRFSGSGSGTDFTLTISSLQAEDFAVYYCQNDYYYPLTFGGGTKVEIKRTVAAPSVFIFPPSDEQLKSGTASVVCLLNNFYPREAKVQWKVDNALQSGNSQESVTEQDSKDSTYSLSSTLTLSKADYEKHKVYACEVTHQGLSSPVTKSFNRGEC
heavy: B2 heavy 1
chain: QVQLVESGGGVVQPGRSLRLSCAASGFTFSTYAMNWVRQAPGKGLEWVARIRSKYNNYATYYADSVKDRFTISRDDSKNTLYLQMNSLRAEDTAVYYCARHGNFGNSYVSWFAYWGQGTLVTVSSGGGGSGGGGSGGGGSQTVVTQEPSLTVSPGGTVTLTCRSSTGAVTTSNYANWVQQKPGQAPRGLIGGTNKRAPGVPARFSGSLLGGKAALTLSGVQPEDEAEYYCALWYSNLWVFGGGTKVEIKGRGRGSDKTHTCPPCPAPPVAGPSVFLFPPKPKDTLMISRTPEVTCVVVDVSHEAPEVQFNWYVDGVEVHNAKTKPREEQFNSTFRVVSVLTVVHQDWLNGKEYKCKVSNKGLPAPIEKTISKTKGQPREPQVCTLPPSRDELTKNQVSLSCAVKGFYPSDIAVEWESNGQPENNYKTTPPVLDSDGSFFLVSKLTVDKSRWQQGNVFSCSVMHEALHNHYTQKSLSLSPGK
notes: YBODY structure: anti-CLDN18.2 Fab arm (1E9.2) and second monomer anti-CD3 scFv (2a5)-Fc
Turning to B3, in the assay with Human CLDN18.2 [4], the “EC50 (pM), in vitro killing by hPBMC, NUGC4-hCLDN18.2 cells” value is 0.378 pM and the “EC50 (pM), in vitro killing by hPBMC, NUGC4 cells” value was 137 pM. In the assay with Human CLDN18.2 [5], the “Induction of expression of CD25 EC50 (pM), NUGC4” value came to 12.2 pM; the “Induction of expression of CD25 EC50 (pM), NUGC4-hCLDN18.2” value was 0.962 pM; the “Induction of expression of CD69 EC50 (pM), NUGC4” value was 0.61 pM; the “Induction of expression of CD69 EC50 (pM), NUGC4-hCLDN18.2” value came out at 0.67 pM. In the assay with Human CLDN18.2 [6], this molecule registered an EC50 of 24.4 nM. In the assay with Human CLDN18.2 [7], this molecule had an EC50 of 58.9 nM. In addition, in the assay with human CD3 antigen, the Kd came to 5.74 nM.

B4: bispecific antibody Y18 (bispecific antibody, human IgG1, kappa)
light: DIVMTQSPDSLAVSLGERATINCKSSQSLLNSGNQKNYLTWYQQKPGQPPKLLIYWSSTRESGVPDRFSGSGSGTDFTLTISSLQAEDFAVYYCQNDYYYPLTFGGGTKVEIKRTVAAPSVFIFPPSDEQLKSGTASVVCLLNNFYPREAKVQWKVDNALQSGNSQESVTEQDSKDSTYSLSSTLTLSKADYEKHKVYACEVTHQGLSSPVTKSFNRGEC
heavy: B2 heavy 1
chain: not shown
notes: YBODY structure: anti-CLDN18.2 Fab arm (1E9.2) and second monomer anti-CD3 scFv (L2K)-Fc
As for B4, in the assay with Human CLDN18.2 [1], the “EC50 value … on NUGC4-hCLDN18.2 cells” value was < 0.01 nM and the “EC50 value … on NUGC4 cells” value is < 0.01 nM. For the same molecule, the binding result in the assay with Human CLDN18.1 is listed as “no binding”. In the assay with Human CLDN18.2 [2], the EC50 is < 50 nM. Moreover, in the assay with Human CLDN18.2 [3], the EC50 was < 100 nM.

B5: bispecific antibody CS10 (bispecific antibody, human IgG1, kappa)
light: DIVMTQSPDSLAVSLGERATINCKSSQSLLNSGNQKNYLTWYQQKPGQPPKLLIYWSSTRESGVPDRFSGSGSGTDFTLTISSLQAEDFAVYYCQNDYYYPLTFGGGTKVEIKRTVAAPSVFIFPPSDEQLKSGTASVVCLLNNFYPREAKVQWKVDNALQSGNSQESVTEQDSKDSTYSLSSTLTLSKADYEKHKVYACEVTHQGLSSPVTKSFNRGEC
heavy 1: B2 heavy 1
heavy 2: not shown
notes: CSBODY structure: two 1E9.2 Fab arms; second heavy chain (first heavy entry) and first heavy chain with anti-CD3 scFv (L2K) between CH1 and Fc2
For the molecule B5, the “EC50 value … on NUGC4-hCLDN18.2 cells” value in the assay with Human CLDN18.2 [1] was < 0.01 nM. In addition, the “EC50 value … on NUGC4 cells” value in the assay with Human CLDN18.2 [1] is < 0.01 nM. Moreover, in the assay with Human CLDN18.1, the binding result is “no binding”. Further, the EC50 with Human CLDN18.2 [2] was < 50 nM; in the assay with Human CLDN18.2 [3], < 100 nM.
